Measurements taken from US20260042834A1, “ANTI-CORTICOTROPIN-RELEASING HORMONE ANTIBODIES AND POLYCYSTIC OVARY SYNDROME” (HBM ALPHA THERAPEUTICS, INC., priority 2022, published 2026).
Where two headings read alike, the source gives them in different places.

T1: human UCN1 (Homo sapiens, UniProt P55089)
T1 sequence (P55089 83-122 limits assumed): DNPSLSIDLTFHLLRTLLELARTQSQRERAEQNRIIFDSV


What was measured:
[1] = system: restraint-induced ACTH and corticosterone; test: Wildtype mice restraint-stress model (ACTH and corticosterone); type: in vivo, mouse; conditions: mAb 5 mg/kg
[2] = molecular target: T2, N-terminal region plus central region, central region only, central region plus C-terminal region of CRH (Homo sapiens, UniProt P06850); test: ELISA determining the binding region of CRH; conditions: dash = no binding
T2 construct: N-terminal region plus the central region (CT biotin), the central region only (NT biotin or CT biotin)
Method: Streptavidin (Thermo, Cat: 21125) was diluted in PBS to a concentration of 2 μg/ml. 100 μl of diluted streptavidin was added per well to ELISA microplates, and the plates were incubated overnight at 4° C. Plates were blocked with ELISA blocking solution (containing 2% w/v BSA, 0.05% (v/v) Tween-20, pH 7.4 PBS buffer) at 37° C. for 1 hour, and then incubated with 1 μg/mL N-terminal region plus the central region (CT biotin), the central region only (NT biotin or CT biotin), or the central region plus C-terminal region (NT biotin) of CRH for 1 hour at 37° C. Plates were then washed and incubated with diluted anti-CRH antibody (Ab) at 15 μg/ml (100 nM, 10 diluted, 8 points) for 1 hour at 37° C. Subsequently, plates were washed and incubated with HRP-conjugated goat anti-human IgG (H+L) antibody (Jackson, Cat: 109-035-088) at 37° C. for 1 hour. 100 μL of 3,3′,5,5′-tetramethylbenzidine (TMB) substrate (Biopanda, Cat: TMB-S-003) was added, and the plates were incubated at room temperature for 15 minutes. 100 μL of ELISA stopping solution (Solarbio, Cat #: C1058) was added to terminate the reaction, and the optical density at 450 nm (OD450 nm) was determined by an ELISA plate reader (Molecular Devices, Spectra max 384 plus).

human UCN1 = molecular target: T1, human UCN1; test: Human UCN1 ELISA binding; conditions: in words
Method: Streptavidin (Thermo, Cat: 21125) was diluted in PBS to a concentration of 2 μg/ml. 100 μl of diluted streptavidin was added per well to ELISA microplates, and the plates were incubated overnight at 4° C. Plates were blocked with ELISA blocking solution (containing 2% w/v BSA, 0.05% (v/v) Tween-20, pH 7.4 PBS buffer) at 37° C. for 1 hour, and then incubated with 0.5 μg/mL CRH (NT biotin), 0.5 μg/mL CRH (CT biotin), 1 μg/mL human UCN1 (NT biotin), or 1 μg/mL human UCN1 (CT biotin) for 1 hour at 37° C. Plates were then washed and incubated with diluted anti-CRH antibody (Ab) at 15 μg/ml (100 nM, 10 diluted, 8 points) for 1 hour at 37° C. Subsequently, plates were washed and incubated with HRP-conjugated goat anti-human IgG (H+L) antibody (Jackson, Cat: 109-035-088) at 37° C. for 1 hour. […] 100 μL of ELISA stopping solution (Solarbio, Cat #: C1058) was added to terminate the reaction, and the optical density at 450 nm (OD450 nm) was determined by an ELISA plate reader (Molecular Devices, Spectra max 384 plus).
Streptavidin (Thermo, Cat: 21125) was diluted in PBS with a concentration of 2 μg/mL. […] 100 μL of ELISA stopping solution (Solarbio, Cat #: C1058) was then added to terminate the reaction, and the OD450 nm was determined by an ELISA plate reader (Molecular Devices, Spectra max 384 plus).

EC50 ([2]; central plus C-terminal region CRH peptide, NT-biotin (SEQ ID NO: 483), read-out: ELISA EC50 C-Ter-CRH (NT-Bion)) [nM] | EC50 ([2]; central region CRH peptide, CT-biotin (SEQ ID NO: 485), read-out: ELISA EC50 Central-CRH (CT-Bion)) [nM] | EC50 ([2]; central region CRH peptide, NT-biotin (SEQ ID NO: 484), read-out: ELISA EC50 Central-CRH (NT-Bion)) [nM] | Molecule | efficacy in reducing plasma ACTH and corticosterone levels versus SSR125543A at 30 mg/kg [1] | binding to human UCN1 peptides in ELISA (human UCN1)
 |  |  | PR302334-24: humanized variant of Series 9 mAb PR302334; VH SEQ ID NO: 275, VL SEQ ID NO: 328 (antibody, V domains shown, PR302334-16 VH, PR302334-24 VH, PR302334-25 VH; PR302334-10 VL, PR302334-24 VL, PR302334-26 VL, PR302334-4 VL) VH: EVQLVESGGGLVKPGGSLRLSCAASGFTFSTYAMSWVRQAPGKGLEWVASIRSGGTTYYPDSVKGRFTISRDNAKNSLYLQMNSLRAEDTAVYYCTRGIDWGQGTTVTVSS VL: DIVMTQSPDSLAVSLGERATINCKASQSVNNDVAWYQQKPGQPPRLLIYYASNRYTGVPDRFSGSGSGTDFTLTISSLQAEDLAVYFCQQDYSSWTFGGGTKVEIK | more efficacious | 
> 100 | > 100 | > 100 | PR302334-26: humanized variant of Series 9 mAb PR302334; VH SEQ ID NO: 277, VL SEQ ID NO: 328 (antibody, V domains shown, PR302334-18 VH, PR302334-26 VH, PR302334-27 VH; PR302334-10 VL, PR302334-24 VL, PR302334-26 VL, PR302334-4 VL) VH: EVQLVESGGGLVQPGGSLRLSCAASGFTFSTYAMSWVRQAPGKGLEWVASIRSGGTTYYPDSVKGRFTISRDNSKNSLYLQMNSLRAEDTAVYYCTRGIDWGQGTTVTVSS VL: DIVMTQSPDSLAVSLGERATINCKASQSVNNDVAWYQQKPGQPPRLLIYYASNRYTGVPDRFSGSGSGTDFTLTISSLQAEDLAVYFCQQDYSSWTFGGGTKVEIK |  | except for PR302334-26, bound to human UCN1
